Data published in US20240239915A1 (Zymeworks, published 2024).
Where two headings read alike, the source gives them in different places.

T1: Recombinant Cynomolgus Fc gamma RIII/CD16 Protein (R&D Systems), His-tagged (cynomolgus, UniProt Q8SPW2 17-208)
T1 construct: also called cynomolgus FcγRIII; cFcγRIII
T1 chain: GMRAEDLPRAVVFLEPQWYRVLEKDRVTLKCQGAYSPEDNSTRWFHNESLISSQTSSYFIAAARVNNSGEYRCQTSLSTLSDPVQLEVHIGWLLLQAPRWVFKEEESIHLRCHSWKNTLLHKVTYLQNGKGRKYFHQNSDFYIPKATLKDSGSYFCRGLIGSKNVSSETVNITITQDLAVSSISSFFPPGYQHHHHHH

T2: Recombinant Cynomolgus Fc gamma RIIA/CD32a Protein (R&D Systems), His-tagged (cynomolgus)
T2 construct: also called cynomolgus FcγRIIa; cFcγRIIa
T2 chain: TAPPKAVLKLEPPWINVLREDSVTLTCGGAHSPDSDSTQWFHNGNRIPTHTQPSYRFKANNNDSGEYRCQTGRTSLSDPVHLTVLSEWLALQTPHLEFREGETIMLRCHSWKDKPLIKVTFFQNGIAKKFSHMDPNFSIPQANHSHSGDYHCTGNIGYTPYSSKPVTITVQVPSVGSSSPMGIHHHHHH

T3: Recombinant Cynomolgus Fc gamma RIIB protein (R&D Systems), His-tagged (cynomolgus)
T3 construct: also called cynomolgus FcγRIIb; cFcγRIIb
T3 chain: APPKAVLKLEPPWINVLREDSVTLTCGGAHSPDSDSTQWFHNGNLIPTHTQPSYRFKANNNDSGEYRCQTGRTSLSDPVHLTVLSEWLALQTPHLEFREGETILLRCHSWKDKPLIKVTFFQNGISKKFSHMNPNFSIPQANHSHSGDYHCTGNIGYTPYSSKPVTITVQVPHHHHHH

T4: Recombinant Human Fc gamma RIIB/C (CD32b/c) Protein (R&D Systems), His-tagged (human, UniProt P31994 46-217)
T4 construct: also called human FcγRIIb/c; hFcγRIIb/c
T4 sequence: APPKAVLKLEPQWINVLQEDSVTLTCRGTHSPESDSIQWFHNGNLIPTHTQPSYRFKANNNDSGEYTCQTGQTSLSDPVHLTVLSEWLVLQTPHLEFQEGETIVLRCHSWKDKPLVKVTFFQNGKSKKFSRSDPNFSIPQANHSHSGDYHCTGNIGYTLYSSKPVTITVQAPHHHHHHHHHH

T5: Recombinant Human Fc gamma RIIA/CD32a (H167) Protein (R&D Systems), His-tagged (human, UniProt P12318 34-218)
T5 construct: also called human FcγRIIa (H167); hFcγRIIa (H167)
T5 sequence: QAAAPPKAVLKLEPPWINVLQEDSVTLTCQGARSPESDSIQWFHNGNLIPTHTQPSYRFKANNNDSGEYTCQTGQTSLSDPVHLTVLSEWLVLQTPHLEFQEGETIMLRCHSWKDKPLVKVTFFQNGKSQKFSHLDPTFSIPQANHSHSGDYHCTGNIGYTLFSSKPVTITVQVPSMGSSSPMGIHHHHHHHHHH

T6: Recombinant Human Fc gamma RIIIB/CD16b Protein (R&D Systems), His-tagged (human, UniProt O75015 20-208)
T6 construct: also called human FcγRIIIb; hFcγRIIIb
T6 chain: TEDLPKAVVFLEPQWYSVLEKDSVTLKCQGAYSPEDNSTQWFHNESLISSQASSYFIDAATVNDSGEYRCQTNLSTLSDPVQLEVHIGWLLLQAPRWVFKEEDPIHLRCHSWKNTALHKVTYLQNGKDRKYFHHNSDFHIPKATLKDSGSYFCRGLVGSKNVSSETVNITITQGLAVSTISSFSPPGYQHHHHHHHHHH

T7: Recombinant Human Fc gamma RIIA/CD32a (R167) Protein (R&D Systems), His-tagged (human, UniProt P12318 36-218)
T7 construct: also called human FcγRIIa; hFcγRIIa
T7 chain: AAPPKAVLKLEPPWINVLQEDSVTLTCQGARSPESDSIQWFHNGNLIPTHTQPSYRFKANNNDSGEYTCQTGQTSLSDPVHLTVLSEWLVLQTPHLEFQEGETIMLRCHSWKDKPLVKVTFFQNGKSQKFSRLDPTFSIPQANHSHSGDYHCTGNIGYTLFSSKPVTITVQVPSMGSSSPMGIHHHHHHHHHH

T8: Recombinant Cynomolgus Monkey Fc gamma RI/CD64 Protein, CF (R&D Systems), His-tagged (cynomolgus, UniProt P12314 11-288 (human entry))
T8 construct: also called cynomolgus FcγRI; cFcγRI
T8 chain: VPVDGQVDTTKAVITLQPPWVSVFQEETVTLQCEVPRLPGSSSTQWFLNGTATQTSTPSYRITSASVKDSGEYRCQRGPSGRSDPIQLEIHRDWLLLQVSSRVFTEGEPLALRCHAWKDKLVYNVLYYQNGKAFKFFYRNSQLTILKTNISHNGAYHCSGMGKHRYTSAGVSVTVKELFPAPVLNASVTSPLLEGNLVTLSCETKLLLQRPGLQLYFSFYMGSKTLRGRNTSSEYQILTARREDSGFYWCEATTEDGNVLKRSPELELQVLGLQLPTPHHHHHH


Columns and labels:
[1] = molecular target: T1, Recombinant Cynomolgus Fc gamma …; assay: SPR (Biacore T200); receptor immobilized directly on CM5 chip, antibody as analyte at 4.7 µM
[2] = molecular target: T2, Recombinant Cynomolgus Fc gamma …; assay: as above
[3] = molecular target: T3, Recombinant Cynomolgus Fc gamma RIIB …; assay: as above
[4] = molecular target: T9, Recombinant Human Fc gamma RIIIA/CD16a (V176F) Protein (R&D Systems), His-tagged (human, UniProt P08637 17-208); assay: as above
T9 construct: no further substitution applied; also called human FcγRIIIa (V176F); hFcγRIIIa (V176F)
T9 sequence (P08637 other isoform, or with tags, fused parts or gaps V176F V176F): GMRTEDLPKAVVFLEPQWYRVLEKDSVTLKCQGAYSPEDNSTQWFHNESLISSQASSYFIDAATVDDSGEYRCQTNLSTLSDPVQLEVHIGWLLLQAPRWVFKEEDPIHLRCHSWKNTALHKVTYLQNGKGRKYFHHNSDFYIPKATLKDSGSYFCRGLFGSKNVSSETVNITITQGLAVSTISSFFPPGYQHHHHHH

[5] = molecular target: T4, Recombinant Human Fc gamma RIIB/C …; assay: as above
[6] = molecular target: T5, Recombinant Human Fc gamma RIIA/CD32a …; assay: as above
[7] = molecular target: T6, Recombinant Human Fc gamma RIIIB/CD16b …; assay: as above
[8] = molecular target: T10, Recombinant Human Fc gamma RIIIA/CD16a protein (R&D Systems), His-tagged (human, UniProt P08637 17-208); assay: as above
T10 construct: also called human FcγRIIIa; hFcγRIIIa
T10 sequence (P08637 other isoform, or with tags, fused parts or gaps): as the sequence (P08637 other isoform, or with tags, fused parts or gaps V176F V176F) above, with F160V counted along it

[9] = molecular target: T9, Recombinant Human Fc gamma RIIIA/CD16a …; assay: as above; remark: listed apart in the source
[10] = molecular target: T4, Recombinant Human Fc gamma RIIB/C …; assay: as above; remark: listed apart in the source
[11] = molecular target: T5, Recombinant Human Fc gamma RIIA/CD32a …; assay: as above; remark: listed apart in the source
[12] = molecular target: T6, Recombinant Human Fc gamma RIIIB/CD16b …; assay: as above
[13] = molecular target: T10, Recombinant Human Fc gamma RIIIA/CD16a …; assay: as above; remark: listed apart in the source
[14] = molecular target: T10, Recombinant Human Fc gamma RIIIA/CD16a …; assay: SPR (Biacore T200): human FcγRIIIa immobilised directly on a CM5 chip, antibody as analyte; RU plotted against antibody concentration
[15] = molecular target: T1, Recombinant Cynomolgus Fc gamma …; assay: SPR (Biacore T200); receptor immobilized directly on CM5 chip, antibody as analyte at 4.7 µM
[16] = molecular target: T2, Recombinant Cynomolgus Fc gamma …; assay: as above
[17] = molecular target: T3, Recombinant Cynomolgus Fc gamma RIIB …; assay: as above
[18] = molecular target: T6, Recombinant Human Fc gamma RIIIB/CD16b …; assay: SPR (Biacore T200): human FcγRIIIb immobilised directly on a CM5 chip, antibody as analyte; RU plotted against antibody concentration
[19] = molecular target: T11, human FcRn (human neonatal Fc receptor large subunit p51 and beta2-microglobulin), biotinylated (human, UniProt P55899 24-297; P61769 21-119, biotinylated (site not stated)); assay: BLI (Octet RED384), biotinylated FcRn on streptavidin biosensor, binding at pH 6.0, dissociation at pH 7.4
[20] = molecular target: T11, human FcRn (human neonatal Fc receptor …); assay: BLI (Octet RED384), biotinylated FcRn on streptavidin biosensor, binding and dissociation at pH 6.0
[21] = molecular target: T7, Recombinant Human Fc gamma RIIA/CD32a …; assay: SPR (Biacore T200); receptor immobilized directly on CM5 chip, antibody as analyte at 4.7 µM
[22] = molecular target: T8, Recombinant Cynomolgus Monkey Fc gamma …; assay: SPR (Biacore T200); His-tagged receptor captured on anti-His antibody chip, antibody as analyte at 4.7 µM
[23] = molecular target: T11, human FcRn (human neonatal Fc receptor …); assay: BLI (Octet RED384), biotinylated FcRn on streptavidin biosensor, binding at pH 6.0, dissociation at pH 7.4; dissociation at pH 7.4 after binding at pH 6.0

binding response (RU) [9] [RU]	binding response (RU) [10] [RU]	binding response (RU) [11] [RU]	binding response (RU) [12] [RU]	binding response (RU) [13] [RU]	binding response (RU) [15] [RU]	binding response (RU) [16] [RU]	binding response (RU) [17] [RU]	Kd [20] [nM]	binding response (RU) [21] [RU]	binding response (RU) [22] [RU]	other results	Binder
-2.2	20	24	0.3	0.4	8.4	25	110	–	–	–	binding response (RU) [1]: 8.4 RU; binding response (RU) [2]: 25 RU; binding response (RU) [3]: 110 RU; binding response (RU) [4]: -2.2 RU; binding response (RU) [5]: 20 RU; binding response (RU) [6]: 24 RU; binding response (RU) [7]: 0.3 RU; binding response (RU) [8]: 0.4 RU; binding result [14]: no binding (tested: 4.7 µM); binding result [18]: no binding (tested: 4.7 µM)	L234A/L235A/D265A (LALA-DA) variant of IgG1 WT of the anti-EGFR antibody panitumumab (antibody, Mutations in both CH2 domains; positions are EU numbers) heavy: QVQLQESGPGLVKPSETLSLTCTVSGGSVSSGDYYWTWIRQSPGKGLEWIGHIYYSGNTNYNPSLKSRLTISIDTSKTQFSLKLSSVTAADTAIYYCVRDRVTGAFDIWGQGTMVTVSSASTKGPSVFPLAPSSKSTSGGTAALGCLVKDYFPEPVTVSWNSGALTSGVHTFPAVLQSSGLYSLSSVVTVPSSSLGTQTYICNVNHKPSNTKVDKRVEPKSCDKTHTCPPCPAPEAAGGPSVFLFPPKPKDTLMISRTPEVTCVVVAVSHEDPEVKFNWYVDGVEVHNAKTKPREEQYNSTYRVVSVLTVLHQDWLNGKEYKCKVSNKALPAPIEKTISKAKGQPREPQVYTLPPSREEMTKNQVSLTCLVKGFYPSDIAVEWESNGQPENNYKTTPPVLDSDGSFFLYSKLTVDKSRWQQGNVFSCSVMHEALHNHYTQKSLSLSPGK light: not shown
–	78	160	–	420	540	94	270	5.5	330	3200	koff [19]: 2.8 s⁻¹	L234A/L235A (LALA) variant of IgG1 WT of the anti-EGFR antibody panitumumab (antibody, Mutations in both CH2 domains) heavy: not shown light: not shown
530	650	1400	250	2400	2800	910	840	5.8	1700	6700	koff [23]: 2.1 s⁻¹	IgG1 WT of the anti-EGFR antibody panitumumab (IgG2 Fc region replaced with a human wildtype IgG1 Fc region) (antibody, The legends were followed; also called anti-EGFR antibody IgG1 WT) heavy: not shown light: not shown
